Assay [1] concerns the target T1, recombinant Bacteroides fragilis toxin 1 (BFT1), full length without signal peptide (Bacteroides fragilis (enterotoxigenic), …).
T1 construct: B. fragilis toxin subtype 1 (BFT1, fragilysin), zinc-dependent metallopeptidase of enterotoxigenic Bacteroides fragilis; prodomain plus catalytic domain, without the signal peptide; also called B. fragilis toxin; source: E. coli Origami-2 (DE3), purified (Ni-NTA, SEC on Superdex 75)
T1 chain: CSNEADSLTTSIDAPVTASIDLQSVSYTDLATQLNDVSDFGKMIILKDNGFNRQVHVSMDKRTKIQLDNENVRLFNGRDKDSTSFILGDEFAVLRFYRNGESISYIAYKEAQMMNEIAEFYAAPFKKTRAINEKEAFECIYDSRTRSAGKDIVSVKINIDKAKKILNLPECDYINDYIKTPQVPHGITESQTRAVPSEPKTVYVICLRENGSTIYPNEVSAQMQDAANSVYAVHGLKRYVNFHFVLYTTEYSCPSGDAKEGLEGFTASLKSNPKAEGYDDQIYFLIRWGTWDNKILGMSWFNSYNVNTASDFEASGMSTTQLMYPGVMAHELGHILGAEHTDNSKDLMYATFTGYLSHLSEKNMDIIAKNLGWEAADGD
Description: ITC; Microcal ITC 200, 25°C; 20 mM Tris pH 8.0, 150 mM NaCl, 5% glycerol; nanobody (20 μM) injected into BFT solution (200 μM); one binding site mode. Conditions: both partners purified. (In general: ITC needs no label: the signal is the heat of the interaction.)

In assay [2] the target is T1, recombinant Bacteroides fragilis toxin …. The assay is described as above. The note with it: both partners purified.
Assay [3] has the same target.

B1: Nb2.14 (VHH)
VHH: QVQLQESGGGFVQTGGSLRLSCERSGTTFDSFAMGWFRQSPGKEREKVATINWSGESTSYTDSVKGRFTISRDNAKNTVYLQMNNLQPEDTAIYYCAQIAGTHYSGTPQYWGQGTQVTVSS
notes: from round 2 of bio-panning; source: E. coli WK6 periplasm, purified (Ni-NTA, SEC on Superdex 75)
As to B1, in assay [1], the Kd was determined as 0.36 nM and the dH was -14.3 kcal/mol. Moreover, the “stoichiometry N” value in assay [2] was determined as 1.

B2: Nb3.40 (VHH)
VHH: QVQLQESGGGFVQTGGSLRLSCERSGTTFDSFAMGWFRQSPGKEREKVATINWSGESTSYTDSVKGRFTISRDNAKNTVYLQMNNLQPEDTAIYYCAQIAGTYYSGTPQYWGQGTQVTVSS
notes: from round 3 of bio-panning; source: E. coli WK6 periplasm, purified (Ni-NTA, SEC on Superdex 75)
Consider B2, for which, in assay [1], the equilibrium dissociation constant (Kd) was 2.58 nM and the dH was -13.6 kcal/mol. In assay [2], the “stoichiometry N” value turned out to be 1.

B3: Nb3.93 (VHH)
VHH: QVQLQESGGGLVQPGGSLRLSCAASGSTLARYHIGWFRQAPGKEREGVACISSSGDSTNYADSVKGRFTISRDNANNTVYLQMNSLKPEDTAVYYCVADPLKCILRRGGENRYLEHWGQGTQVTVSS
notes: as for B2
As for B3, in assay [1], the dissociation constant (Kd) amounted to 5.96 nM and the dH is -22.1 kcal/mol. The “stoichiometry N” value in assay [2] was 1.

B4: Nb2.74 (VHH)
VHH: QVQLQESGGGLVQPGGSLRLSCGASGFTFNGYAMSWVRQAPGKGPEWVSGINTIGNTTYYADSVKGRFTISRDNAQNTLYLQMNSLKPEDTALYYCARKPFGSTWTEYDYRGQGTQVTVSS
On to B4, for which the binding result in assay [3] was “binds”.

B5: Nb3.88 (VHH)
VHH: QVQLQESGGGLVQPGGSLRLSCAASGLTFNGYAMSWVRQAPGKGPEWVSGINTIGTTTYYADSVKGRFTISRDNAKNTLYLQMNSLKPEDTALYYCARKPFGSTWSEYDYRGQGTQVTVSS
Consider B5, for which, in assay [3], the binding result was “binds”.

B6: Nb3.4 (VHH)
VHH: QVQLQESGGGLVQPGGSLRLSCAASGFTFSSAAMNWVRQAPGKGPEWVSGINSSGTTTKYADSVKGRFTISRDNAKNTLYLQMNSLKPEDTAIYYCARKPLWSVGYDYWGQGTQVTVSS
notes: as for B2
B6: in assay [1], the Kd was determined as 3.94 nM and the dH was -8.4 kcal/mol. The “stoichiometry N” value in assay [2] was determined as 1.

B7: Nb2.50 (VHH)
VHH: QVQLQESGGGLVQAGGSLRLSCVSSGRTFDAWAMGWLRQAPGKERESVATISWSGDRTQYADSVKGRFTISRDNAKNTLFLQMNNLRPEDTAIYYCALMEGTHYSGRPGTWGRGTQVTVSS
On to B7, for which the binding result in assay [3] is listed as “binds”.

B8: Nb2.55 (VHH)
VHH: QVQLQESGGGLVQAGGSLRLSCVRSGHTFDAFAMGWFRQAPGKERESVATINWSGDRTYYADSAKGRFTISRDNAKNTVYLQMNSLKPEDTAVYYCAQMDGTYYSGTPSYWGQGTQVTVSS
notes: as for B1
For B8, in assay [1], the equilibrium dissociation constant (Kd) came to 10.6 nM and the dH was -10 kcal/mol. Also, in assay [2], the “stoichiometry N” value was determined as 1.

B9: Nb3.43 (VHH)
VHH: QVQLQESGGGLVQAGGSLRLSCARSGRTFSSFAMGWFRQAPGKEREFVATINWSGDKTSYADSVKGRFTISRDNAKNTVYLQMNSLKPEDTAVYYCAQMDGTYYSGSPGYWGQGTQVTVSS
notes: as for B2
For B9, in assay [1], the dissociation constant (Kd) came to 2.01 nM and the dH was -9.06 kcal/mol. Besides, in assay [2], the “stoichiometry N” value was 1.

B10: Nb3.17 (VHH)
VHH: QVQLQESGGGLVQAGDSLRLSCAASGGSFDMFAMGWFRQAPGKERERVATISWSGDRTVYADSVKGRFTISRDNTKKMLYLQMNNLKPEDTAVYYCAQIEGTHYSGSPSDHWGQGTQVTVSS
notes: as for B2
In the case of B10, in assay [1], the Kd was found to be 0.66 nM and the dH was -20.3 kcal/mol. Further, the “stoichiometry N” value in assay [2] worked out at 1.

B11: Nb3.27 (VHH)
VHH: QVQLQESGGGLVQAGGSLRLSCTYSGQTFSAWAMGWFRQAPGKERETVATINWNGERTQYADAVKGRFTISRDNAKDTVYLEMNSLKPEDTAVYYCASMMGTYYSGSPKNWGQGTQVTVSS
notes: from round 3 of bio-panning; CDR1 Gly26-Ala33, CDR2 Ile51-Thr58, CDR3 Ala97-Asn110; source: E. coli WK6 periplasm, purified (Ni-NTA, SEC on Superdex 75)
Consider B11, for which, in assay [1], the Kd was 0.828 nM and the dH is -9.47 kcal/mol. In addition, the “stoichiometry N” value in assay [2] stood at 1.

B12: Nb2.29 (VHH)
VHH: QVQLQESGGGLVQAGGSLRLSCVASGIIDNINTFGWYRQAPGKQRELVANISRWGNTNYADSSRDGFFISSEDANTTMYLLMMNLKPDDDAVYYCRAEIIGYDNGAHDYWGRGTRITVSS
notes: as for B1
B12: in assay [1], the equilibrium dissociation constant (Kd) stood at 1.18 nM and the dH was -15.5 kcal/mol. In addition, the “stoichiometry N” value in assay [2] was found to be 1.

B13: Nb2.37 (VHH)
VHH: QVQLQESGGGLVQPGGSLRLSCVVSRRTFDAWAMGWFRQAPGQERDFVASVNWSGDSTYYADSVKGRFTISRDNAKNTVYLQMNSLKPEDTAVYYCAALAGSYHSRTPLDDYWGQGTQVTVSS
notes: as for B1
Consider B13, for which, in assay [1], the equilibrium dissociation constant (Kd) was 3.91 nM and the dH was -14.1 kcal/mol. Moreover, the “stoichiometry N” value in assay [2] was found to be 1.

B14: Nb2.1 (VHH)
VHH: QVQLQESGGGLVQPEGSLRLSCVASGEFTLDYYAIGWFRQAPGKEREELSCISRTGANTNYADSVKGRFTVSRDNAKNTVYLQMNSLKPEDTANYYCAATLGVNNDCSGYVSPDVYDYWGHGTQVTVSS
As to B14, the binding result in assay [3] is given as “binds”.

B15: Nb2.13 (VHH)
VHH: QVQLQESGGGLVQPGGSLTLSCVGSGFSLEYYAVGWFRQAPGKEREAVACISSWDGLTYLSDSVKGRFTVSRDNVKNTAYLQMNSLKPEDSAVYYCARDRARCRYYSTPNEYDEWGHGTQVTVSS
For B15, the binding result in assay [3] is reported as “binds”.

B16: Nb3.63 (VHH)
VHH: QVQLQESGGGLVQVGGSLRLSCAASGRTFGTFPMGWFRQAPGKEREFVAAISWSGTGTYYANSVKGRFTISRDNARNTVYLQMNNLKPEDTAVYSCAGRNTGRYSTTVYVEESDYGYWGQGTQVTVSS
notes: as for B2
On to B16, for which, in assay [1], the Kd is 3.37 nM and the dH is -18.8 kcal/mol. Besides, the “stoichiometry N” value in assay [2] amounted to 1.

B17: Nb3.61 (VHH)
VHH: QVQLQESGGGLVQPGGSLRLSCAASGFSFSSYAMTWVRQAPGKGPERVSIINPSGRTTNYADSVKGRFTISRDNAKNTLYLQMNSLKPEDTALYYCARKPPMAEEYDYRGQGTQVTVSS
Regarding B17, in assay [3], the binding result is given as “binds”.

B18: Nb3.74 (VHH)
VHH: QVQLQESGGGFVQTGGSLRLSCERSGTTFDSFAMGWFRQAPGKERESVGTINWSGDRTYYADSVKGRFTISRDNAKNTVYLQMKKLKPEDTAVYYCAQIRGTYLDGSPGSWGQGTQVTVSS
As for B18, the binding result in assay [3] is “binds”.

B19: Nb2.40 (VHH)
VHH: QVQLQESGGGLVQAGGSLRLSCAYFGRTFSAWAMGWFRQAPGKERESVATINWSGERTSYADSVKGRFTISRDNAKNTVYLQMNSLKPEDTAVYYCAAMEGTYYSGKPGTWGQGTQVTVSS
notes: as for B1
For the molecule B19, in assay [1], the dissociation constant Kd was determined as 8.72 nM and the dH was -13.5 kcal/mol. Further, the “stoichiometry N” value in assay [2] was 1.

B20: Nb2.59 (VHH)
VHH: QVQLQESGGGLVQAGGSLRLSCAFSGRTDDAQYAMGWFRQAPGKERESVGTINWSGDRTNYADSVKGRFTISRDNVKNMMYLQMNSLKPEDTAVYYCARIYGTYLSGSPGSWGQGTQVTVSS
For the molecule B20, the binding result in assay [3] is reported as “binds”.

B21: Nb2.41 (VHH)
VHH: QVQLQESGGGLVQAGGSLRLSCASSGRTFDAWAMGWFRQAPGKEREVVATISWNGDRTYYGDSVKGRFTISRDNAKSTVALQMNNLKPEDTGVYYCAQMEGTYYSGRPSYWGQGTQVTVSS
notes: as for B1
Regarding B21, in assay [1], the Kd was found to be 1.37 nM and the dH was -20 kcal/mol. For the same molecule, the “stoichiometry N” value in assay [2] worked out at 1.

B22: Nb2.82 (VHH)
VHH: QVQLQESGGGLVQPGGSLRLSCAASGFTFSRYTMTWVRQAPGKGLEWVSNINSDGGRTYYADSVKGRFTISRDNTKNTLYLQMNSLKPEDTAVYYCAIPKRTYVPPSQFDDRGQGTQVTVSS
notes: from round 2 of bio-panning; CDR1 Gly26-Thr33, CDR2 Ile51-Thr58, CDR3 Ala97-Asp111; source: E. coli WK6 periplasm, purified (Ni-NTA, SEC on Superdex 75)
In the case of B22, in assay [1], the Kd is 11.5 nM and the dH was -17.9 kcal/mol. For the same molecule, the “stoichiometry N” value in assay [2] worked out at 1.

As usually defined, the Kd is the free concentration of one partner at which half of the binding sites on the other are occupied at equilibrium, for simple one-to-one binding. The stoichiometry N is the number of molecules, sites or subunits per partner or assembly.

For the origin of these results see article PMC9950733, “Screening and epitope characterization of diagnostic nanobody against total and activated Bacteroides fragilis toxin” (Frontiers in Immunology, 2023).
